{
  "source": "the nanobody polyreactivity screen of Harvey et al. (2022)",
  "data": [
    {"test": "yeast display, Sf9 membrane polyspecificity reagent, FACS + sequencing; frameworks hold sequencing errors", "procedure,_shortened": "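Galactose-induced (36–48 hours) yeast carrying a synthetic nanobody display library were exposed to 10% biotinylated, detergent-solubilized Sf9 membrane reagent at 4 °C for 1 hour. FACS followed streptavidin microbead enrichment, using low and high (top ~1%) gates for expression (anti-HA) and reagent binding (streptavidin). Colony PCR, MiSeq 2 × 250 sequencing and CDR-length filtering followed. Labels for polyreactivity reflect the gate of origin.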", "values": [
      {"sequence": "QVQLVESGGGLVQAGGSLRLSCAASGRTFGWYAMGWYRQAPGKERELVAAINNSGDITYYADSVKGRFTISRDNAKNTVYLQMNRLKPEDTAVYYCAKDNGRAYFGPSPYDYWGQGTQVTVSS", "polyreactivity (PSR sort gate)": "low polyreactivity"},
      {"sequence": "QVQLVESGGGLLQAGGSLRLSCAASGRTFKSYTMGWYRQAPGKERELVAAIRASGGITYYADSVKGRFTISRDNAKNTVYLQMNSLKPEDTAVYYCAARPRTRYDYWGQGTQVTVSS", "polyreactivity (PSR sort gate)": "high polyreactivity"},
      {"sequence": "QVQLVESGGGLVQAGGSLRLSCAASGSILLRNAMGWYRQAPGKERELVAAISRDGGSTYADSVKGRFTISRDNAKNTVYLQMNSLKPEDTAVYYCAKRSYWYDYWGQGTQVTVSS", "polyreactivity (PSR sort gate)": "high polyreactivity"},
      {"sequence": "QVQLVESGGGLVQAGGSLRLSCAASGFSFRQYAMGWYRQAPGKERELVAAISRSGSRTYYADSVKGRFTLSRDNAKNTGYLQMNSLKAEDTAVYYCNAVFSTFTGEYYWGQGTQVTVSS", "polyreactivity (PSR sort gate)": "high polyreactivity"},
      {"sequence": "QVQLVESGGGLVQAGGSLRLSCAASGRISDVYAMGWYRQAPGKERELVAVISWRGGTTRYADSVKGRFTISRDNAKNTVYLQMNSLKAEDTAVFYCAAKTVLWGQGTQVTVSS", "polyreactivity (PSR sort gate)": "high polyreactivity"},
      {"sequence": "QVQLVESGGGIVQAGGSLRLSCAASGSTFNDNAMGWYRQAPGNERELVAAITGGGGRTYYADSVKGRFTISRDNAKNTVYLQMNSLKPEATAVYYCNRGATFEYWGHGTQVTVSS", "polyreactivity (PSR sort gate)": "low polyreactivity"},
      {"sequence": "QVHLVESGGGLVQAGGSLRISCAASGFTFVWYAMGWYRPPPGKERELVAALSRRGTRTYYADSVKGRFSISRDNAKNTVYLQMNSLKPEDTAVYYSAASNGYEAVTYDYWGQGTQVTVSS", "polyreactivity (PSR sort gate)": "high polyreactivity"},
      {"sequence": "QVQLVESGGGLVQAGGSLRLSCAASGIIFYSYAMGWYRQAPGKERELVAAISRSSGRTYYADSVKGRFTISRDNAKNTVYLQMNSLKPEDTAVYYCATDYYYYPWEYDYWGQGTQVTVSS", "polyreactivity (PSR sort gate)": "high polyreactivity"},
      {"sequence": "QVQLVESGGGLVQAGGSLRISCAASGSTFWGYAMGWYRQAPGKERELVATINQSAGSTYYADSVKGRFTISRDNAKNTVYLQMNSLKPEDTAVYYCAAEARVQFSYDYWGQGTQVTVSS", "polyreactivity (PSR sort gate)": "low polyreactivity"},
      {"sequence": "QVQLVESGGGLVQAGGSLRLTCAASGRTLAWYTMGWYRQAPGKERELVAAISGSGGSTYYADSVKGRFTISRDNAKNTVYFQINRLKPEDTAVYYCSLRVDSYYGHTRYYYWGQGTQVTLSS", "polyreactivity (PSR sort gate)": "high polyreactivity"},
      {"sequence": "QVQLVESGGGLVQAGGSLRLSCAASGRISRVYAMGWYRQAPGKERELVAAITSSGGSTYADSVKGRFTISRDNAKNTVYLQMNSLKPEDTAVYYCAADSYWYRFLKSRYDYWGQGTQVTVSS", "polyreactivity (PSR sort gate)": "low polyreactivity"},
      {"sequence": "QVQLLESGGGLVQAGGSLRLTCAASVIIFYPYAMVWYRQAPGKERELVAAISIGGGSTYYADSVKGRFTISRDNAKNTVYLQMNSLKPEDTAVYYCAAGTPYGILGYYYWGQGTQVTVSS", "polyreactivity (PSR sort gate)": "low polyreactivity"},
      {"sequence": "QVQHVESGGGLVQAGGSLRLSCAASGFTFGSYAMGWYRQAPGKERELVARISSDGSTNYADSVKGRFTISRDNPKNTVYLQMNSLKPEDTAVYYCAADRVVEYADYYYWGQGTQVTVSS", "polyreactivity (PSR sort gate)": "low polyreactivity"},
      {"sequence": "QVQLVESGGGLVQAGGSLRLSCAASGFIFKLNAMGWYRQAPGKERELVATITRGGDTKYADSVKGRFTISRDNAKNTVYLQMNSLKPEDTAVYYCAAGYPYSYRDYYYWGQGTQVTVSS", "polyreactivity (PSR sort gate)": "high polyreactivity"},
      {"sequence": "QVQRVESGGALVQAGGSLRLSCAASGRIFGGYAMGWYRQAPGKERELVAAISSRGGSTYYADSVKGRFTISRDNAKNTVYLQMNSLKPEDTAVYYCAADGRVKGWGQGTQVTVSS", "polyreactivity (PSR sort gate)": "high polyreactivity"},
      {"sequence": "QVQLVESGGGLVQAGGSLRLSCAASGSTLSQYAMGWYRQAPGKERELVAAISGGGRTYYADSVKGRFTISRDNAKNTVYLQMNSLKPEDTAVYYCAKVRLKKGTRDSYDYWGQGTQVTVSS", "polyreactivity (PSR sort gate)": "high polyreactivity"},
      {"sequence": "QVQLVESGGGLVQAGGSLRLSCAASGSIFYDYAMGWYRQATRKERELVPAITNDDSSTYYADSVKGRFTISRDNAKNTVYLQMNSLKPEDTAVYYCRFKYAVAHHFWVYRYDYWGQGTQVTVSS", "polyreactivity (PSR sort gate)": "low polyreactivity"},
      {"sequence": "QVQLVESGGGLVQAGGSLRLSCAASGFTFSEYAMGWYRQAPGKERELVAAISQRGGSTYYADSVKGRFTISRDNAKNTVYLQMNSLKPEDTAVYYCAADSARYYGAKRFGYWGQGTQVTVSS", "polyreactivity (PSR sort gate)": "high polyreactivity"},
      {"sequence": "QVQLVESGGGLVQAGGSLRLSCAASGSTFAFNAMGWYRQAPGKERELVASISGSGSSTYYADSVKGRFTISRDNAKNTVYLQMNSMKPEVTAVYYCDARVGARVSPPRRHGRFNYWGQGTQVTVSS", "polyreactivity (PSR sort gate)": "high polyreactivity"},
      {"sequence": "QVQLVESGGGLVQAGGSLRLRCAASGNIFDDNAMGWYRQAPGKERELVAALTWTGGSTYYADSVKGRFTISRDNAKNTVYLQMNSLKAEYTAVYNCADYDYWGQGTQVTVSS", "polyreactivity (PSR sort gate)": "low polyreactivity"},
      {"sequence": "QVQLVESGGGLVQAGGSLRLSCAASGSSLYYNAMGWYRQAPGKERELVAAISWSGGSTYYADSVKGRFTISRDNAKNTVYLQMNSLKPEDTAVSYCAADQSTVLDVGSWGQGTQVTVSS", "polyreactivity (PSR sort gate)": "low polyreactivity"},
      {"sequence": "QVQLVESGGGLVQAGGSLRLSCAASGFTFTRNAMGWYRQAPGKERELVAAISKRGGTTYYADSVKGRFTISRDNAKNTVYLQMNSLKPEDTAVYYCAKDGGITGGYWGQGTQVTVSS", "polyreactivity (PSR sort gate)": "high polyreactivity"},
      {"sequence": "QVQLVESGGGLVQAGGSLRLSCAASGSTFGWYTMGWYRQAPGKERELVATISYGGGITNYADSVKGRFTMSRDNAKNTVDLQMNSLKPEDTAVYYWAVDNTGRSWPYDYWGQGTQVTVSS", "polyreactivity (PSR sort gate)": "low polyreactivity"},
      {"sequence": "QVQLVESGGGLVQAGGSLRLSCAASGSTFTYYAMGWYRQAPGKERELVAAITRRGGSTYYADSVKGRFTISRDNAKNTVYLQMNSLIPEDTAVYYCAKSTQIRAYIWDPYRISTYGYWGQGTQVTVSS", "polyreactivity (PSR sort gate)": "high polyreactivity"},
      {"sequence": "QVQIVESGGGLVQAGGSLRLSCAASGFIFGIYDMGWYRQAPGKERELYADSVKGRFTISRDNAKNTVYLQMNSVKPEDTAVYYCNRAQGVHTYVYRYGYWGQGTQVTESS", "polyreactivity (PSR sort gate)": "low polyreactivity"},
      {"sequence": "QVQLVEACGGLVQAGGSLRLICAASGNIFAYNAMGWYRQAPGKERELVAAISVIGGTTYYADSVKGRFTISRDNAKNTVYLQMNSLKPEDTAVYSCSVDSVQYGGGYERLHELYYWGQGTQVTVSS", "polyreactivity (PSR sort gate)": "low polyreactivity"},
      {"sequence": "QDQLVESGGGLVQAGGSLRLSSAASGLTLHGNAMGWYRHAPGKERELVATITSSGGSTFYADSVKGRFTLSRDNAKNTVYLKMNSMKPEDTAVYYCNADAPYSVDYYVRFDYWGQGTQVTVSS", "polyreactivity (PSR sort gate)": "low polyreactivity"},
      {"sequence": "QVQLVESAGGLVQAGGSHRLSCAASASIFDGYAMGWYRQAPGKEREVVAAIRRSGVDTYYADSVKGRFTISRDNAKTTVYLQMNSLKPEDTAVDYCAADSYPSPNFEDNYWRQGTQVTVSS", "polyreactivity (PSR sort gate)": "low polyreactivity"},
      {"sequence": "QVQLVESGGGLVQAGGSLRLSCAASGSIFRAYAMGWYRQAPGKERELVADISRSGGSTYYADSVKGRFTISRDNAKNTVYLQLNSLKPEDTAVYYCAAVFYLYSNLYGEYDYWGQGTQVTVSS", "polyreactivity (PSR sort gate)": "low polyreactivity"},
      {"sequence": "QVQLVESGGGLVQAGGSLRLSCAASGFIFYSYDMGWYRQAPGKERELVAAIDSRGVNTYYADSVKGRFTISRDNAKNTVYLQMNILKPEDTAVYYCNVDAITWWDWEDFDYWGQGTQVTVSS", "polyreactivity (PSR sort gate)": "low polyreactivity"},
      {"sequence": "QVQLVESGGGLVQAGGSLRLSSAASGSIFTYYAMGWYRQAPGKERELLASISRHGGSTYYADSVKGRFTISRDNAKNTVYLQMNSLKPEDTAVYYCNARGWHTKVVSPRYYWGQGTQVTVSS", "polyreactivity (PSR sort gate)": "high polyreactivity"},
      {"sequence": "QVQLVESGGGLVQAGGSLRLSCAASGSTFEWYAMGGYRQAPGKEREFVASISWSGGRTYYADSVKGRFTISRDNAKNTVYLQMNSLKPEDTAVYYCAAVAVPLQVPSGRAASKRRYGYWGQGTQVTVSS", "polyreactivity (PSR sort gate)": "high polyreactivity"}
    ]}
  ]
}
